This data set can be described thus: label from the status in PepcDB records.

Data on 20 sequences can be found in a protein production outcome set (Wang et al. 2014).
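Further: failed if final PepcDB status was selected cloned or expressed and not failed if soluble or beyond.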

In the case of “MNRGVIVTGGGHGIGKQICLDFLEAGDKVCFIDIDEKRSADFAKERPNLFYFHGDVADPLTLKKFVEYAMEKLQRIDVLVNNACRGSKGILSSLLYEEFDYILSVGLKAPYELSRLCRDELIKNKGRIINIASTRAFQSEPDSEAYASAKGGIVALTHALAMSLGPDVLVNCIAPGWINVTEQQEFTQEDCAAIPAGKVGTPKDISNMVLFLCQQDFITGETIIVDGGMSKRMIYHGDWNWFYKIDK”, the protein production entry was “not failed”. Regarding “MNRKKLQKLTDTLTKNCKHFNKFEVNCLIKLFYDLVGGVERQGLVVGLDRNAFRNILHVTFGMTDDMIMDRVFRGFDKDNDGCVNVLEWIHGLSLFLRGSLEEKMKYCFEVFDLNGDGFISKEEMFHMLKNSLLKQPSEEDPDEGIKDLVEITLKKMDHDHDGKLSFADYELAVREETLLLEAFGPCLPDPKSQMEFEAQVFKDPNEFNDM”, the protein production result is listed as “failed”. The same measure for “MNRLDQLGIRINLICNVFDKWIGQQDLNYNLFTVLYTLATEGSRTQKHIGEEWSLPKQTVSGVCKTLAGQGLIEWQEGEQDRRERLLSLTEKGKVHAAPLTENAQEFSDKVFSTFGDKRTTRLFADLDALAEVMEKTISENKK”: “failed”. “MNRNDITILSQQRESVLATNKVLRNTYLLLSLTFIFSALTAYVAFISGARPMNPLLMIVGVYGLMFLTQALRNSVWGLVSVFAFTGFLGYTIGPLLNYYITGFSNGPQIVATALGGTGMIFFALSGYALTTKKDFSYLGGFLFVGVMVALLAMIAGIFIQIPALQLVISAAFVLISSGLILLQTSAIIHEGETNYIMATIGLFVSIYNLFVSLLNLLSAFSGRD”: the protein production entry is given as “failed”. The same measure for “MNRSLWTQWSIASVIVLFCAFCLYSPAHAGVDEDLVRAVEDNKTHRVRDLLTKGASPDARDLQSETALMLAARNKNPEMGGLLLEAGANPDLRNKYGETATMLACYYGQLDLVKRLYAKGAKIDHDGWNPLIYAASKGYKEIVEFLLNYGVRIDAATDNGTTALMMAVRGNHYDTVELLLKHGANALIRNEADGTALGWARKQGHTSIVQLLTRNGTAD”: “failed”.

Take “MNSASTTVPTDLTNERLPSGRLLALGLQHVLVMYAGTVAVPLIVGGALKLPKDQLAFLINADLFAAGLATLIQAFGFWKFGIRMPVMMGVTFASVAPMIAIGNDPNVGLLGIYGAVIASGIFGILIAPMMGRMLGLFPPVVTGTVITLIGVSLMRVGINWAGGGQPTTRAVIDGVAKEVPNLAYGDLSNLAIAGLVLAVILLLSKYGRGLVANCAVLLGIIIGTLVAMALGKVSFEGLNEASYVAVITPLHFGIPKFELTAILSMCIVMLITLVESTGMFLALSDITGRKLSRDDLTAGLRADGLGTVIGGIFNTFPYTSFSQNVGLVTVTGVRSRYVAAAGGLILIAFGLFPKMAHVVASVPQFVLGGAGIVMFGMVAATGIRILGSCDFNRNRHNLFIVAISIGFGMIPTLSPTLFQYLPKWTDPFTHSGIVLGTIVAVALNLFFNGIQSAEEAMRNAAANSHGTE”: the protein production result was “failed”. The same measure for “MNSCILQATVVEAPQLRYTQDNQTPVAEMVVQFPGLSSKDAPARLKVVGWGAVAQELQDRCRLNDEVVLEGRLRINSLLKPDGNREKQTELTVTRVHHLTLDSATGILAQEESEVSYGRSAAASAPVKASPVVTPTAAPDVDYDDIPF”: “failed”; for “MNSEVDTLFAQAYKLQYEGHLPQAISLYEQILAQSPKHTETLHFLGLTYAQLGDMENAILYFLQARKINPNDVGILNNLANAYKKAGQLDEAIKYYQQAIEIKPEYVQAHNNLAATYALLNNYQKALHHYVIAVNTEPDFSAAHFNLGLLLLKNQQLSAAKTQFNNVIALNPQHREAQFYLGILHLEDNLLSEAEQAFHKVLEQDHEHVQSLINLGVIALKREQNQLAVDYFTKALALDNEDIDARNNLAATFMHHDRFENALMHYDVLLKKEPDNLEYLYNSGVAQMALGHLNEATLLFDQILTLQSDHTPSLNNLAAIYLKMDMRETAREYLERALAINPDDVISRHMLNAITGATSVNTTEKYAQNLFNNYALYYDQHMQGELHYKIPHHIGRLIHQLQLLQTSHSLDLGCGTGLTGIVLREISKHLTGVDIAEKMIARAKEKNIYDLLVCSELIDFLRKDKNDYDLAVAADVLPYFGNLDDIFNSINQHLKQEGYFIFTTEISTTTPWKLESSARFSHQPEYIESLINKYQFHLIKQEKIPGRTQNKQVLEVMLYCIQKSTSCFVSN”: “failed”; for “MNSHFLTNDLILEVLSRLPLKSVARFHCVSKRWASMFGSPYFKELFLTRSSAKPRLLFAIVQNGVWRFFSSPRLEKSSSTLVATAEFHMKLSPNNLRIYHDNTPRYFSIGYASGLIYLYGDRYEATPLICNPNTGRYTILPKCYTYRKAFSFFGFDPIDKQYKALSMIYPSGPGHSKILTFGDGDMNWKKIKYRVLHDIYSQGICINGVLYYLGDTSDWDNDHDVTSGNVLVCFDLRSESFTFIGLECGQLINYKGKLAVIFWDDVDDDDVKDDAIDEMHVWVLEDVEKKEWSKYAYTWTEDKLYRSQVSVVGMTASGEIVFSMRKYTSEQPFYVYYFNPERNNLRRVEIQGFEAFTKFGTVYTFVDHVEDLNVYNLKHFKSVHPPSVQPEYDESDSESEEDREIII”: “failed”. The same measure for “MNSIEKELDCGRSVTDQQKIEEVTRQITEHGNELRRRYPVLNYQNALGASAMAVSVTVMVVTGVLYVKGIMPAWLCILVNALSTSIIHELEHDLIHRLYFRKQPLAHNFMMLLCWLTRPGMPSPWLRRGLHFHHHKESGTATDVEAWITTSGNPWGILRLLKLMDGFLFGFVNAVCAPGWRQKMKLLARIIRLNTPFGLLYWGSWYVFLGYHLSTWLGGLAGVPPPSSPLMLQVMNMIDCVVVIVVAPNMIRQFCLYFISSNMHYYGDVAPRNALQQTQVMNHWLLWPFQLFCFNFGSTHSIHHFVVKDPFYLRQMTAPYAHEVMAKAGVRFNDFGTYKRANRFKLDTVQFQSRG”: “failed”. The same measure for “MNSLPSPHPPLSPAVPVASRAALRLAELGVFVLTALVVNMPSGLLPFGVCLLGGTLLGWRSLRAGLATQGWSLRVLTGLTAVVIAMSVLSIVLFEPSVRDVENRSRFLVLPWAALWAYALQPRQVWLWRGALAGVFAAMLVAILQVMNGAERAEGWTNAIVFADIALMLLVVAIFCRPNGQVRWLLGAAVAAVAVIVLSGSRGVWLSLLVTLGVLVWGAPWQSARMRLLAFVGGAVVCVGLVLSVPGLTEQLRIGELQSDFQRYEVGDADSSAGARIERLHVAWDTLQAHPLTGVGVGRFDDAMRELPLCAGDTWLLRCHLGHAHNDLAEWGATQGIPGLLLLIAVYGVPLWMFVRLHRRSGQRQFRGPAAAGVMIVISYALCGLTQSMFAHQVSASFYAAMVGILAGLAARQAQQHATAASPLAQSAR”: “failed”; for “MNSLSSLAAVLLMAGRSTRMGQPKALLPLGGMPLCRHAAQTLVEAGYGEVWAVLPPGETGDAVRAALQGLPLRWVTNPQPAQGLLSSFQAAGEALWAESAAPAVVFTLADMPLVRRDTHQALGTVFGAEQPAAIITRYGEVAAPPTLLRRDLLPRLHEFPPSDHGPRTLLRELGRELKKIDRPAAELLDIDTPEAWAQAQQLFAEVTPGAQDGP”: “failed”. On to “MNSNANNTPIAIGISQVFPCSYLDGQQEQLLVIQEETLDPILFERLLAIGFRRSGSAIYKPRCPRCSACQPIRVPIQEFVPSKRQKRTLAHNRDLTWRITTEHTETQYALYEKYIRERHFDGPMYPPSKAQYEQFLFCHWLPPTFIEVYDDNRLVAVAVTDTLPNSFSAIYSYFDPDEERRSLGVLLILLQCRLAKLQGKAFLYLGYQIDANRKMSYKRLYRPYQILTHQGWEYSQVCLEHHHHHH”, for which the protein production result is listed as “failed”.

On to “MNSNVNDRKPRLVFFQWDHQPNANAAGYLLLHMQQQVKCLSTHFDVVVINRDCDYAEICDRYEPDLTLFESGYRSHGSRRIKITNTNTHIAVPKLGLHNADAWCDRRAGFLSDMEQWGIEAYFAIATMTPEYMPAVKENLFVWPNFIDPDVYHDYGQQKVIPAMLTGQAYGLYPWRQTVFPMIRDRYPCLVSPQHAYESKLASQLLSGEAYARALNASLVVPTCGTMGGEVVRKHFEIPGAKACLVTERTPAVEAAGFVDMENCVFVDGHNVVERLDYLFAHPDEIRHITTAGYSLIHSRHTLSHRPQIYQWFMLSKGLQFGEKIIQSGPFGDLTKVQRISRQESVHIVGEASDRALLKQGDLLLEQGRVEEAKQCYARCLDYVSYLPEAKFRLAICALQQGDADRAYGLMVGLVKVTMTEYEALNPDPVEWAYFLLALICRGQFERARRLQDFYPSLSHDEFRRARLVIALLGGSGDAAVSGRYGRDRKSIHQIPDRSDSEWLAWFSDILERCQQPDLANVLRHAPVGRSGVGEKVTFLHFKRDAGWRLRLYSGVDGLMVGLHLNGLRPNVPPLPEFRYFSHLARRLVPHSQRGPLRRIRTALSRLPVGTGN”, for which the protein production result is given as “failed”. Take “MNSPFAAETLLFERSRPRPEALRVIYGFPNTYSVGITSLGYQLVWAQLASRADVAVSRLFTDVQEPLPRDPELVGFSFSWELDYGNLLVLLEQLGIPIWQRDRHDCHPLVFGGGPVLTANPEPFADFFDVILLGDAEPLLDPFLTTMAQVRTAARSQRLEALAHVPGIYVPSLYHVSYSHPTGPIQRIEPIKASVPPTVTKQVHRGHTLAASTVVTPLAAWENIYMVEVVRSCPELCRFCLASYLTLPFRTPSLETLIPAIERGLAVTDRLGLLGASITQHPEFPALIEHLGQPQFDHVRVSLASVRTNTVTESLAQLLSQRGSQSLTIAIETGSERLRQVINKKLETEEILAAASHAQAGGLKGLKFYGMVGLPTETDADVAATVDLFCQLKKTAPRLRLTLGCSTFVPKAHTPFQWWGVQPVAEKRLKFLKKELAKLGIEFRPESYNDSLIQALISRGDRRLAPLLEQVRHYGTSLGSYRRAFKERQGQLPDFEAYVNANWPEETVLPWQHLQSGLPTKTLENHLKRAIALEHHHHHH”: the protein production entry is reported as “failed”. As for “MNSPKNSLYEEKSGHYYNAVNPNLLKHIKKEWKEVLDIGCSSGALGAAIKENGTRVSGIEAFPEAAEQAKEKLDHVVLGDIETMDMPYEEEQFDCVIFGDVLEHLFDPWAVIEKVKPYIKQNGVILASIPNVSHISVLAPLLAGNWTYTEYGLLDKTHIRFFTFNEMLRMFLKAGYSISKVDRVYVDHKMYEPLIEELYGICKKYRLGSGFMAETVVFQYIIEAEKSQL”, the entry is “not failed”. As for “MNSPTSRPLRRDPLHNALVTTNVLVVLDQLEVAAEPTRRRLVQLLTSGEQTVNNLAAHFPASRSAISQHLRVLTEAGLVTPRKDGRFRYYRLDPQGLAQLRALFDSFWIDELDRLVADATEEAASKGDS”, the entry is “not failed”; as for “MNSTAIVLLNWRSAKDTVKCVESLIAAEIRQCDIIIVDNDSQDESINVIKEHFTDVRVIESGKNGGFAYGCNVGIRAALSSGYNYVWLLNNDTIVDKTTLPNMIEEIKRNKKAIVGSIIRDIEFPWSVQAVGGGTINFLTGTGRHIKTFDDVDKLDYLLGASILVSREALESIGLLNEDFFMYWEDTEFCIRARRKGYFLKVAKQSNVYHKEGGSVNKESYAQTRMIFRSMRKFFLKESPFPLLPIAIRQLGKTFVSLLRREFRRIPYIWL”, “failed”; as for “MNSTRGVTLIQLSSALAYSHALMNQVVNPGDHVIDATVGNGHDTVYLAKLVGTTGHVDGFDIQSAAIEATTTALDKAALTHQVTLWQTGHEHIADKIAADQPIKCAVFNLGYLPGGDKQIITKPTTTLTAIKAIQERLVTNGLIILLVYAGHPGGATEAQAVLDYVTNLDQHQFQVLQYQFINQVHVPPYLLAIQKR”, “failed”. As to “MNSVGFYGKLAGRGDFVSRGLPNTFVEPWDAWLASGMRASQDELGAAWLDAYLTSPLWRFAIAPGLLGGEAVTGVVMPSIDRVGRYFPLTVACLLPANADLGGLVGGDDGWFEQVESLLLSTLEPEAEVEAFEQAVAQLPAPPCGPRIEQSLISGNLLRSEAVTPAQRLAALAQHACDGASHWWGRGSARISAGLMRYQGLPPAPAFGRFLTGEGEVIPLFPGIPG”, the protein production entry is “not failed”.
